The nature of series [1]: Stability in human liver microsomes. The following applies: for % of mass remaining in solution: 0.5 mg/mL human liver microsomes, 1 μM, 1 mM NADPH, 37° C. As to the method:
Human liver microsomes were prepared by Absorption Systems. A reaction mixture, minus NADPH, was prepared as described below. […] In parallel, a […]. The test compound was added into the reaction mixture (0.5 mg/mL human liver microsomes; 100 mM potassium phosphate; 5 mM Magnesium chloride) at a final concentration of 1 μM. An aliquot of the reaction mixture (without cofactor) was incubated in a shaking water bath at 37° C. for 3 minutes. […] The samples were then mixed and centrifuged to precipitate microsomal proteins. […] A thermo BDS Hypersil C18 column (30×2.0 mm; 3 μm) was used for chromatography at 300 μL/minute with an aqueous reservoir of 90% water and 10% buffer and an organic reservoir of 90% acetonitrile with 10% buffer (each 25 mM ammonium formate buffer at pH of 3.5). Test compound samples were analyzed by orbitrap. The peak area response ratio to internal standard (PARR) of the compounds at 10, 20, 30, and 60 minutes was compared to the PARR at time 0 to determine the percent of test compound remaining at each timepoint. After the final time point, fluorimetry is used to confirm the addition of NADPH to the reaction mixture. Half-life was normalized of control using internal acceptance criteria.
The mass spectrometry measurements of compound were taken at 0, 10, 20, 30, and 60 minutes after incubation of the compound with human liver microsomes at […] in solution at 37° C.
Intrinsic clearance (CLint) was calculated based upon CLint=k/P, where k is the elimination rate constant and P is the protein concentration in the incubation.

In a further series the target is T1, GIP receptor (UniProt P48546 22-466, limits assumed).
T1 sequence (looked up): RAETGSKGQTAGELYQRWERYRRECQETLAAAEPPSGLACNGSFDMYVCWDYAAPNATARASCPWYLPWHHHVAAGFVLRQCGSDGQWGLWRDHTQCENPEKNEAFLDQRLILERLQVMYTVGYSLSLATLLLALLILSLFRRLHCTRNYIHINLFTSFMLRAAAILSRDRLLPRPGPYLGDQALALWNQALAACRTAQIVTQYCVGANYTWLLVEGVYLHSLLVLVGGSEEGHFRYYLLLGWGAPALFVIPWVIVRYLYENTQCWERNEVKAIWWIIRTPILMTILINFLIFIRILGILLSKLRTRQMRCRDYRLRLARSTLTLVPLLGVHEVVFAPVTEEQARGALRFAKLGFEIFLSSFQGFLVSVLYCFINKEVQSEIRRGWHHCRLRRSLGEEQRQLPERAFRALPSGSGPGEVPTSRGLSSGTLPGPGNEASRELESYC
Nature of the series: cell-based or functional assay.

Series [2] in a line: Stability in human plasma. Type of series: in vitro ADME. Here is the method:
Studies of the 2010 peptide were carried out in human plasma. All plasma was obtained from Bioreclamation and collected on sodium heparin. DMSO stocks were first prepared for the test compounds. Aliquots of the DMSO solutions were dosed into 1 mL of plasma, which had been pre-warmed to 37° C., at a final test compound concentration of 1 μM. The vials were kept in a benchtop Thermomixer® for the duration of the experiment. Aliquots (100 μL) were taken at each timepoint (0, 15, 30, 60, and 120 minutes) and added to 96-well plates which had been pre-filled with 300 μL of acetonitrile. Samples were stored at 4° C. until the end of the experiment. After the final timepoint was sampled, the plate was mixed and then centrifuged at 3,000 rpm for 10 minutes. Aliquots of the supernatant were removed, diluted 1:1 into distilled water, and analyzed by LC-MS/MS.
Below is a table of data describing the stability of compounds exposed to human plasma with aliquot of compound dissolved in DMSO solution at 37° C. The pH of the plasma solution was adjusted to 7.4 and single replicants of aliquot were taken at 0, 15, 30, 60 and 120 minutes. LC-MS/MS was used to determine the percent mass of compound remaining in solution (% remaining).

In another series the target is T2, GIP receptor (GIPR) (Homo sapiens, UniProt P48546).
T2 sequence (P48546 22-466): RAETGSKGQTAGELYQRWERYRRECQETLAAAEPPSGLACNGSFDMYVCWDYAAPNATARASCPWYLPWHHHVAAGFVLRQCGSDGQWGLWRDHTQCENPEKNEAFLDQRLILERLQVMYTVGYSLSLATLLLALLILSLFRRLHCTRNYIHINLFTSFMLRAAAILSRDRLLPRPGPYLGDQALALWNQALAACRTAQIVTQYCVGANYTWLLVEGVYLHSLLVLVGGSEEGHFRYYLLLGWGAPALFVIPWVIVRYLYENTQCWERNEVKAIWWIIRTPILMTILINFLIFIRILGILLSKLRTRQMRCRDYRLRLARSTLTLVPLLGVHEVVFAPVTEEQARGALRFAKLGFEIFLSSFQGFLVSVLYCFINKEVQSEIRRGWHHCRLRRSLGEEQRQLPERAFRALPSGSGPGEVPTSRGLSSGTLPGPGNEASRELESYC
As to the kind of experiment: cAMP Hunter agonist assay (DiscoveRx HitHunter cAMP XS+), GIPR cells. The following applies: read-out: Max Response. In kind it is cell-based. Here is the method:
Once it was established that the cells were healthy and growing normally, cells were passaged from flasks using cell dissociation reagent buffer and seeded into white walled clear bottom 384-well microplates for compound profiling. For profiling, cells were seeded at a density of 10,000 cells per well in a total volume of 20 μL and were allowed to adhere and recover overnight prior to compound addition. cAMP modulation was determined using the DiscoveRx HitHunter cAMP XS+ assay.
For profiling compound in agonist mode, the cells were incubated in the presence of compound at 37° C. for 30 minutes. […] After appropriate compound incubation, assay signal was generated through incubation with DiscoverX lysis cocktail according to the manufacturers standard protocol. Dose curves were plotted using GraphPad Prism or Activity Base. Percentage activity is calculated using the following formula: % Activity=100%×(mean RLU of test sample−mean RLU of vehicle control)/(mean RLU of MAX control−mean RLU of vehicle control).

The target in the next series is GLP-1 receptor (UniProt P43220 24-463, limits assumed). Nature of the series: cell-based or functional assay.

Non-standard residues stand in square brackets, D forms with d. No end group written: not given here. APC = 3-aminopyrrolidine-4-carboxylic acid (cyclic beta amino acid); ACPC = 2-aminocyclopentanecarboxylic acid (cyclic beta amino acid); Aib = CC(C)(N)C(=O)O A value given as a limit tells only on which side of the number the result lay.

On to `C[C@]12CC[C@H]3[C@@H](CCC4=CC(=O)CC[C@@]43C)[C@@H]1CC[C@@H]2O` [Testosterone, testosterone], for which the “% of mass remaining in solution” value in series [1] (0 mins.) was 100%; in series [1] (60 mins.) it was 4.8%. Besides, the fraction remaining at 10 min, 1 μM in series [1] (human, microsomes) came to 53%. For the same molecule, the amount remaining at 0.5 h, 1 μM in series [1] (human, microsomes) was 13%.
In the series with GIP receptor, “wild-type GLP-1 (from UniProt P01275 92-128) (ligand)” returned a cAMP agonist: Max Response of 2.66%.
Take `CC[C@H](C)[C@H](NC(=O)[C@H](CO)NC(=O)[C@H](Cc1ccc(O)cc1)NC(=O)[C@H](CC(=O)O)NC(=O)[C@H](CO)NC(=O)[C@@H](NC(=O)[C@H](Cc1ccccc1)NC(=O)[C@@H](NC(=O)CNC(=O)[C@H](CCC(=O)O)NC(=O)C(C)(C)NC(=O)[C@@H](N)Cc1ccc(O)cc1)[C@@H](C)O)[C@@H](C)O)C(=O)N[C@@H](Cc1ccc(O)cc1)C(=O)N[C@@H](CC(C)C)C(=O)N[C@@H](CC(=O)O)C(=O)N[C@@H](CCCCN)C(=O)N[C@@H](CCC(N)=O)C(=O)N[C@@H](C)C(=O)N[C@@H](C)C(=O)NC(C)(C)C(=O)N[C@@H](CCC(=O)O)C(=O)N[C@@H](Cc1ccccc1)C(=O)N[C@H](C(=O)N[C@@H](CC(N)=O)C(=O)N[C@@H](Cc1c[nH]c2ccccc12)C(=O)N[C@@H](CC(C)C)C(=O)N[C@@H](CC(C)C)C(=O)N[C@@H](C)C(=O)NCC(N)=O)C(C)C` [compound 2000, YBEGT FTSDY SIYLD KQAAB EFVNW LLAG]: the “% of mass remaining in solution” value in series [2] (0 mins., 1 μM, 37° C., pH 7.4) turned out to be 100%. The amount remaining at 0.25 h, 1 μM in series [2] (plasma (sodium heparin), 15 mins., 1 μM, 37° C., pH 7.4, read-out: % of mass remaining in solution) was 101%. The share remaining at 0.5 h, 1 μM in series [2] (plasma (sodium heparin), 30 mins., 1 μM, 37° C., pH 7.4, read-out: % of mass remaining in solution) worked out at 99%. Further, the share remaining at 1 h, 1 μM in series [2] (plasma (sodium heparin), 60 mins., 1 μM, 37° C., pH 7.4, read-out: % of mass remaining in solution) was 95%. Besides, the fraction remaining at 2 h, 1 μM in series [2] (plasma (sodium heparin), 120 mins., 1 μM, 37° C., pH 7.4, read-out: % of mass remaining in solution) is 98%. Further, the half-life in series [2] (read-out: serum-half lives) was over 120 min. For the same molecule, the “% of mass remaining in solution” value in series [1] (0 mins.) was 100%. For the same molecule, in series [1] (human, microsomes), the half-life amounted to 58 min; the microsomal CLint came out at 24 µL/min/mg; the fraction remaining at 10 min, 1 μM was found to be 95%; the share remaining at 20 min, 1 μM was determined as 78%. In series [1] (human, microsomes), the amount remaining at 0.5 h, 1 μM was found to be 72% and the amount remaining at 1 h, 1 μM was found to be 50%.
As for `CC[C@H](C)[C@H](NC(=O)[C@H](Cc1ccccc1)NC(=O)[C@H](CCC(=O)O)NC(=O)[C@H](CCCCN)NC(=O)[C@H](C)NC(=O)[C@H](C)NC(=O)[C@H](CCC(N)=O)NC(=O)CNC(=O)[C@H](CCC(=O)O)NC(=O)[C@H](CC(C)C)NC(=O)[C@H](Cc1ccc(O)cc1)NC(=O)[C@H](CO)NC(=O)[C@H](CO)NC(=O)[C@@H](NC(=O)[C@H](CC(=O)O)NC(=O)[C@H](CO)NC(=O)[C@@H](NC(=O)[C@H](Cc1ccccc1)NC(=O)[C@@H](NC(=O)CNC(=O)[C@H](CCC(=O)O)NC(=O)[C@H](C)NC(=O)[C@@H](N)Cc1c[nH]cn1)[C@@H](C)O)[C@@H](C)O)C(C)C)C(=O)N[C@@H](C)C(=O)N[C@@H](Cc1c[nH]c2ccccc12)C(=O)N[C@@H](CC(C)C)C(=O)N[C@H](C(=O)N[C@@H](CCCCN)C(=O)NCC(=O)N[C@@H](CCCNC(=N)N)C(N)=O)C(C)C` [GLP1], the Emax on GIP receptor (GIPR) was 2.66%.

B1: 2001 (peptide)
peptide: YXEGTFTSDYSXYLDXQAXXEFXNWXLAG
modifications: B = alpha-aminoisobutyric acid (Aib) at positions 2 and 20; alpha-to-beta3 amino acid replacement(s) at the bold and underlined position(s) of the printed sequence, which this text does not show
On to B1, for which, in the series with GLP-1 receptor, the “cAMP agonist EC50 (RC50 (uM))” value is over 1 µM and the “cAMP agonist: Max Response” value is 36.7%. Further, in the series with GIP receptor, the “cAMP agonist EC50 (RC50 (uM))” value is over 1 µM and the “cAMP agonist: Max Response” value is 16.5%.

B2: 2010 (peptide)
peptide: Y[Aib]EGTFTSDYSIYLDK[ACPC]AA[Aib][ACPC]FV[APC]WLL[ACPC]G
With B2, in the series with GLP-1 receptor, the “cAMP agonist: Curve Bottom” value was found to be 0.4%, the “cAMP agonist: Curve Top” value was 82.4% and the “cAMP agonist: Max Response” value was determined as 82.1%. In the series with GIP receptor, the “cAMP agonist: Curve Bottom” value was -0.3%, the “cAMP agonist: Curve Top” value was determined as 85.5% and the “cAMP agonist: Max Response” value stood at 96.9%.

B3: 2004 (peptide)
peptide: YXEGTFTSDYSXYLXKQAXXEXVNWXLAX
modifications: B = alpha-aminoisobutyric acid (Aib) at positions 2 and 20; alpha-to-beta3 amino acid replacement(s) at the bold and underlined position(s) of the printed sequence, which this text does not show
In the case of B3, in the series with GLP-1 receptor, the “cAMP agonist EC50 (RC50 (uM))” value was over 1 µM and the “cAMP agonist: Max Response” value came to 2.68%. In the series with GIP receptor, the “cAMP agonist: Curve Bottom” value is -0.8%, the “cAMP agonist: Curve Top” value was determined as 99.1% and the “cAMP agonist: Max Response” value was found to be 99.1%.

B4: 2005 (peptide)
peptide: YXEGTFTSDYSIYXDKXAAXXFVXWLLXG
modifications: B = alpha-aminoisobutyric acid (Aib) at positions 2 and 20; alpha-to-beta3 amino acid replacement(s) at the bold and underlined position(s) of the printed sequence, which this text does not show
As to B4, in the series with GLP-1 receptor, the “cAMP agonist: Curve Bottom” value amounted to 1.3%, the “cAMP agonist: Curve Top” value stood at 91.1% and the “cAMP agonist: Max Response” value is 95.7%. Moreover, in the series with GIP receptor, the “cAMP agonist: Curve Bottom” value is -2.6%, the “cAMP agonist: Curve Top” value was determined as 96.3% and the “cAMP agonist: Max Response” value worked out at 99.2%.

B5: 2008 (peptide)
peptide: Y[Aib]EGTFTSDYSIYLD[APC]QA[ACPC][Aib]EF[ACPC]NW[ACPC]LAG
With B5, in the series with GLP-1 receptor, the “cAMP agonist: Curve Bottom” value is 0.9%, the “cAMP agonist: Curve Top” value is 84.4% and the “cAMP agonist: Max Response” value was determined as 84.5%. Further, in the series with GIP receptor, the “cAMP agonist: Curve Bottom” value was -0.6%, the “cAMP agonist: Curve Top” value was determined as 82.8% and the “cAMP agonist: Max Response” value was 82.2%.

Values taken from patent US9790262B2, “Compositions comprising glucagon analogs and methods of making and using the same” (LONGEVITY BIOTECH, INC., priority 2011, dated 2017).
